From paper PMC4387560 (Cell Research, 2015) come the findings set out here.

The test has as its target T1, Scp1-WD40 (residues 567-1085) (S. pombe, UniProt O43043 567-1085).
T1 sequence (looked up): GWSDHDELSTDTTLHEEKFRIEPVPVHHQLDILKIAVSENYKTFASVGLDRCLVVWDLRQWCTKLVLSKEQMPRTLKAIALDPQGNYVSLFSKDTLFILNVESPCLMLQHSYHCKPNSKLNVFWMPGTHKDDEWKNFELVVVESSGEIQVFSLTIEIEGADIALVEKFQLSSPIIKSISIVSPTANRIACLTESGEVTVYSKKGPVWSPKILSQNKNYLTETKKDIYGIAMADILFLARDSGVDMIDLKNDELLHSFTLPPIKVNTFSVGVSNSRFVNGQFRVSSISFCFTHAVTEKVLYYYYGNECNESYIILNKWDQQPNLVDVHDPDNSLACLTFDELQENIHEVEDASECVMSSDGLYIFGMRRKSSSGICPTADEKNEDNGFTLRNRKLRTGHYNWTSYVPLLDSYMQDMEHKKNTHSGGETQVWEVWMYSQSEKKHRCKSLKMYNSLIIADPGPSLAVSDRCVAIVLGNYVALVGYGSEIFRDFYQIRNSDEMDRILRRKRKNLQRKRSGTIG
Description: pull-down.

B1: MBP-fused regulatory domain of Sre1 (residues 628-900) (domain or fragment, S. pombe, UniProt Q9UUD1 628-900, looked up)
chain: QHSKSSVHAELRELPECTANLIENSHADDVFSPNMVERLWVLAKCTRDSAQMSDSIISSLSDVLVLSPLEVLASWYAADLLDALLMESLSRKVEISEIEEIISLCPKNSSIIRHALLAKLVLFPENTADSLNEVLAAYKNTLDLCSQDKRKQSSVLKINLSKLFTLHSCLSLALQRLGYGDVSKRMYQEIFVPDSDADITPLSFIISWTALNTFAPICTSPKENDVVEKMAMYVRTAIGTLKIQDLKLSRKLINSCIDIGSRLQEDLGYVSSA
Take B1: the binding result was “binds”.
